In the DeepSol protein solubility set:

Test: soluble on expression in E. coli; label from the status in PepcDB or PDB records

Sequence | soluble on expression in E. coli
MKPKDFCTAENWAENLSALGYLAGWRFVRMLPLPIARRVFDLGADLASKSGKGMGQLRANLARVVGAENVTQALVKQATRSYARYWLEAFRLPAIARDPELLARLRKGTVGLDLLDESLAAGKGVVLTLPHSGNWDMAGAFLISHHGQFTTVAERVKPERLFEAFVEFRESLGFEVLPLTGGERPPFEKLKERLTSGGIVCLLGERDLRHSGVETTFFGEKTSMPAGPAQLAIETGAALHVVHPWFDDDGWGLSVSDAVTVDNLSDTVQRIAHLFMANITAHPADWHMLQPLWFGDLDPERLKRSREQTNVHKPVALQEDN | not soluble
MAGDPMVTQNKKILIITGSFGNGHMQVTQSIVNQLNDMNLDHLSVIEHDLFMEAHPILTSICKKWYINSFKYFRNMYKGFYYSRPDKLDKCFYKYYGLNKLINLLIKEKPDLILLTFPTPVMSVLTEQFNINIPVATVMTDYRLHKNWITPYSTRYYVATKETKQDFIDVGIDPSTVKVTGIPIDNKFETPINQKQWLIDNNLDPDKQTILMSAGAFGVSKGFDTMITDILAKSANAQVVMICGKSKELKRSLTAKFKSNENVLILGYTKHMNEWMASSQLMITKPGGITITEGFARCIPMIFLNPAPGQELENALYFEEKGFGKIADTPEEAIKIVASLTNGNEQLTNMISTMEQDKIKYATQTICRDLLDLIGHSSQPQEIYGKVPLYARFFVKLEHHHHHH | not soluble
MIRFIIPLMDCARLYGRPVQFKTERTDINSLMFGLPKLPSVDYFAEEEIAHLMTQEFNPLKEKDTDDTMALTMSRFSSYLQERMTKVSKRNTELNFRTFSDVMGMYNTTRDHSKLNCMSDKDNSVKEFSLSDKSNVSSETTNMMNQLQVNAHEYKSSMCERPIVASTSPIA | not soluble
MAHHHHHHMNEIVINNLNYNYYNGIQRTRIKALQNVNLCFERGMRILVCGKNGAGKSTLLSIIAGKKLIKENEVLIFNKQAFHDTDISNKIGYVGEWWSEEYAMNISIKDFCFNYEYTKRYKNLLKLFELDENKIISNLSKGERKKVQIMVNIIVRKDIYIFDEATESLDLVSRKLLLE | soluble
MSLNTTFTKEDGTEVVIPFNGSQNGHPENEEPEVEEAAEPSSSVETLCGATRGDIIVMKHTTKALTELIERLLHSDEFEVRRCSNGQIISQGRCNGTTPGNGIGGGGASSEELEKALKDRDAARAEADKLHANYATLFASFNTVREAANDIRGEYEDARDKLKLAAAEVDEWQAKFLAVKDNANSELERASVEYDDLLRSHDENTKGLRLRVKRQEIELSSKNDEIKVLTNRVSELSQICDQLLNDVDVSDGMSVISTDA | not soluble
MSLSPTKTRRILFLLPYVADLSVGDFSKGLNPVMQDKQIDVMMTTLDFLQNKTAKELINEFDGLIYYALDTEQHLDLLFELSLKEFPVVILDKKIYELPFPTVLSDNFQGGALAASYLIEQGHSKIAYLFGTQTHPQSVRQRYLGYLEALDKAGLTFHTSLDDKSATLDELLSYITKYEVTAFVCENDVVAIQTMNLLRQHGYHIPEDFSIIGFDDIQAAALVDPPLTTIAQDFEQLGKLAGDALVTWLETKDRPSDSKFPVSFIKRQSTKEGHHHHHH | soluble
MGSDKIHHHHHHMIRDNIMSQIDLPTDFDFQQAGRQVLEIEREGLAQLDQYINEDFTHACETIFRCGGKVVVMGMGKSGHIGRKMAATFASTGTSAFFVHPGEAAHGDLGMVTPQDVVIALSNSGESNEILALIPVLKRQQVKLICITSRPESSMARAADIHLCVKVPKEACPLGLAPTSSTTAALVMGDALAVALLEARGFTAEDFALSHPGGALGRKLLLRVNDIMHTGDEIPHVGLQATLRDALLEITRKNLGMTAICDDDMNIIGIFTDGDLRRVFDTGVDMRDASIADVMTRGGIRIRPGTLAVDALNLMQSRHITCVLVADGDHLLGVVHMHDLLRAGVV | not soluble
NVVLKDASELLDEVVVIGYGAVKKSDLTSSISTVKGKEITETVTGNAMDALQGKINGVQVTSGGGPGAQPKVLIRGVTTVNGTDPLYVVDGMPVGTNINFLNSNDIESMEVLKDASAAAIYGTRASNGVILITTKKGMAGK | not soluble
TGLLLSLIALSLQAAQLTASVDRTRLNAGETVELTLETDDVTQFGKPDMSSLEASFEVRDTRQLNSLKTLDGSSQATTRWIVTLLPRETGSVIIPSLQLGELKSQPLTLQVMQSETKEPTSHLASIFIEASLDQDSVYVQAQAVLTLRVYHSVSLFDDSSLN | soluble
MNYGFVKVAAAVPRVKVADCKFNSERLEGLITIAEGKGVQILTFPEMCITGYTCGDLFAQQLLLEQAEMALIQILNSTRQLDIISILGMPVVVNSTVINAAVVIQKGKILGVVPKTYLPNYKEFYEQRWFTSALQVSENSVRLCGQIVPMGNNLLFETAETTFGIEICEDLWATVPPSSSLALQGAEIIFNLSADDEGIGKHNYLCSLISQQSARCISGYVFSSSGFGESTTDVVFAGNGLIYENGYLLARSERFCMEEQLIINEIDVECIRAERRVNTTFAANKANCPGKEAVRISTEFVNSKDLNLTRTFNPHPFVPQGNELNSRCEEIFSIQIAGLAQRLLHTGAKTAVIGISGGLDSTLALLVCVKTFDKLGLSRKDILGITMPGFGTTDRTYHNAIDLMNSLGVSIREISIREACIQHFKDIGHDLNIHDVTYENSQARERTQILMDIANQTWGMVIGTGDLSELALGWATYNGDHMSMYGVNAGIPKTLVKHLVQWVAENGMDETSKATLLDIVDTPISPELIPADELEHHHHHH | soluble
MENVNRNHKNSVFSSLFSTPDVLRELYSAIEGIPIPPDIPIDINTLTDILYKGQINDVSFVINNRLVVLIEHQSTINANIPLRLLMYIARVYEKIINRKKLYQSKLEKIPLPEFIVLYNGEKEYSDFQELKLSDAFKDIDGLKLSGIEKIPLELIVQVYNINHGHNPEILKRSETLDSYSIFINKIREYQKEKDSLEKAARSAIIYCIKNNILKDYLEAHASEVLNMLLTEWNQDEAVEVAREEGREEGREEGHENGLKEGKMIIAKNLLEKGSTPEFVREITGLSPEEIEEIELND | soluble
MKTFKAVRFQIVNEHGRIIEYELEDGVIINKEESGTGWLLEIVISNEHYETFKEYQDNEQLLDIRVVITRPANDPALFESTVKSIKNFKTTMSIVFECHIYTLRQQYAESLLEQLIDDGLSGEELKKSFNRMMQSKPKLKDEKLEELEHHHHHH | soluble
MDFKASGTKFKKTGKKVVPAKAFEEIVQTNRDVLKKSAFLSDLLENLQPHLNNIKKIRCVAIGNFKEDFPATYQFALLLEITDYIKSEDERDVVVSLYDPIFTKEEIQYLKSLGSKWLIEEEFSENDAIDYESVLYFLPHAPLDLTENILSSQRPHLWLANNMISHTDRYTKAKLCENYPNLSKLVHYLQTNAPPEVKKAHDVDGFATFIPKRKRKNRNNSSKLKVTPSDIDYDSIAPKFKSCQILTDFDEGKYLKEKPWINSFSDLTLHAIEY | not soluble
MASMTGGQQMGRIPGNSPRMVLLESEQFLTELTRLFQKCRSSGSVFITLKKYDGRTKPIPRKSSVEGLEPAENKCLLRATDGKRKISTVVSSKEVNKFQMAYSNLLRANMDGLKKRDKKNKSKKSKPAQGGEQKLISEEDDSAGSPMPQFQTWEEFSRAAEKLYLADPMKVRVVLKYRHVDGNLCIKVTDDLVCLVYRTDQAQDVKKIEKFHSQLMRLMVAKESRNVTMETE | soluble
GQRELTLFVHGFNSTQTETAYRAAQLAHDIEMPGSLMVYSWPSKGHALGYAYDADSTVFARDGLETVLRRLGEQRIDRLAVVAHSMGSFLLMEALRQIEIATPGWSARHLDGVILISPDLDLDVFRSQMRRIKTVPQPFVVMASEKDNVLNLSRHLRGKQSSERLGQIGSAALITDLPVAVIDTSQFSDEAESGHFIAATSPTLLAMIAEARNMTDLFEAGNVPL | not soluble
MSLKHYDLIIIGTGSGNSIPGPEFDDKSIAIVEKGAFGGTCLNVGCIPTKMYVYAADIAQEIQESARLGIDATVNSVDWPSIVSRVFDKRIDLIAQGGEAYRRGPETPNIDVYDMHASFVDSKTISTGIAGQEQLISGTDIVIATGSRPYIPEAIAESGARYYTNEDIMRLAQQPESLVIVGGGFIALEFAHVFEALGTKVTILNRSDVLLREADADISAKILELSKKRFDVRLSTAVTAVHNKADGGVKISTDTGDDIEADILLVATGRTPNGNQMNLDAAGIEMNGRSIKVDEFGRTSVEGVWALGDVSSPYKLKHVANAEMRAIKHNLANPNDLQKMPHDFVPSAVFTNPQISQVGMTEQEAREAGLDITVKIQNYSDVAYGWAMEDKDGFVKLIADKDTGKLVGAHIIGAQASTLIQQLITVMAFGIDAREAATKQYWIHPALPEVIENALLGLEFEGHHHHHH | soluble
MGSDKIHHHHHHMSLKQMECVVAVAKLRSFTKAAAKLKVAQPSLSQSIQAVEKQVGVPLFDRSTFPITLTHAGEVYVAKANAIIELYKDLNTQMCDVIGSDKGPLRLGFSQTGYQFIPTALAKFCKRFPCADLRVVQVFSTLKLEKMLSEGDIDIATLVLPLSSPEIDYKIIKENQAFLALPITHPLSQKAIREAQDSPSVSLEELKEERFILPKSTQRSRPIFDEIFRKAGFEPKIFCETETFDIANAIVASGVGACFTLPQFIKEDKQDKVVLFHVDEPLLARTVVLAYRKDKHLSKMACEFLTIARSL | not soluble
MNSAWALLRLASPQLPIGGYSYSQGLEMAVEQSIVIDPQTAGRWIGDQLLLNLARFEAPLLLAHCEAAAVGDWGQLLQVSEQHRASRETRELHQESRQMGYSLQQLLNGLPELDRDARRFLEQTTEPHLALGWALAARTWRISPQDALAAWLWSWLENQLAVLMKTLPLGQQAAQRLTSELLPLLQQAQVNASAQDTHPAGSAAFGLALASMAHERQYSRLFRS | soluble
MGSDKIHHHHHHMPEKLDTVLGYLKEFPDYYKYVTKKTYTVNEKIIFEDEKAKSIFFIVEGYAAVELEDNLRKTNYISIFVLPYNVLGIDAFSSYPKKKHSITVMSEHLMLYKIDADFLLNILSIKPDVNDFLLTSIADVFARHYALLGMIAKTPKERIYMALENLAVEMGTEDEERNEIVLPNFINQSVLARYCRTTQPNISNLLTELVEEEFLVNKKSPYRIDKDSLDI | not soluble
MTDLELQQLVATISMHDFHRPFQHRAYFNARLRTTGGRYQLASHDIDINPKMLTDFDEATLIGVIKHELCHYHLHLTKRGYRHRDADFKRLLAQVGGSRYAPAPKQATARPYRYIYECQRCGRRYYRKRRMDTRRYTCGRCQGPIKLVLEHHHHHH | soluble
MDLSGVKKKSLLGVKENNKKSSTRAPSPTKRKDRSDEKSKDRSKDKGATKESSEKDRGRDKTRKRRSASSGSSSTRSRSSSTSSSGSSTSTGSSSGSSSSSASSRSGSSSTSRSSSSSSSSGSPSPSRRRHDNRRRSRSKSKPPKRDEKERKRRSPSPKPTKVHIGRLTRNVTKDHIMEIFSTYGKIKMIDMPVERMHPHLSKGYAYVEFENPDEAEKALKHMDGGQIDGQEITATAVLAPWPRPPPRRFSPPRRMLPPPPMWRRSPPRMRRRSRSPRRRSPVRRRSRSPGRRRHRSRSSSNSSR | soluble
